For three substances, Kd and EC50 (read off the curve) results are on record in patent publication US20130202593A1.

Bounds are passed on as bounds.

The target of assay [1] is IgG. The assay can be described thus: fluorescence titration spectroscopy.
Assay [2] has as its target IgG. Nature of the assay: steady-state fluorescence titration (quenching of TRIM21 tryptophan fluorescence on titration of IgG).
The target in assay [3] is recombinant full-length TRIM21 (human) (UniProt P19474). Nature of the assay: steady-state fluorescence titration: quenching of intrinsic TRIM21 tryptophan fluorescence on titration of IgG.
Assay [4] addresses ΔRING-ΔBOX TRIM21 (human) (UniProt P19474). The description is as above.

As for “ΔRING-ΔBOX TRIM21 (from UniProt P19474 129-475) (receptor)”, the Kd in assay [1] is under 1 nM; in assay [2], 0.9 nM.
In the case of IgG (antibody), the figures for the EC50 (read off the curve) in assay [3] and in assay [4] were 1 nM and 3 nM, respectively.
For “recombinant full-length TRIM21 (from UniProt P19474 1-475) (receptor)”, the equilibrium dissociation constant (Kd) in assay [1] is under 1 nM; in assay [2], 0.6 nM.

For orientation: Kd means the equilibrium constant for the complex coming apart. The low end stands for tighter binding, the high end for weaker binding. Broadly, the EC50 (read off the curve) is the midpoint of the concentration-response curve.
